Data on 23 molecules can be found in patent US20230192896A1 (BIOVERATIV THERAPEUTICS, published 2023).

The labels stand for the following.
B1: BIIB-12-904 (antibody, V domains shown)
VH: QVQLVESGGGVVQPGRSLRLSCAASGFTFSSYGMHWVRQAPGKGLEWVAVISYDGSNKYYADSVKGRFTISRDNSKNTLYLQMNSLRAEDTAVYYCARGSGRSGYHYWGQGTLVTVSS
VL: EIVMTQSPATLSVSPGERATLSCRASQSVSSNLAWYQQKPGQAPRLLIYGASTRATGIPARFSGSGSGTEFTLTISSLQSEDFAVYYCQQAFNWPPTFGGGTKVEIK
notes: IgG
B2: BIIB-12-912 (antibody, V domains shown)
VH: QVQLVESGGGVVQPGRSLRLSCAASGFTFSSYGMHWVRQAPGKGLEWVAVISYDGSNKYYADSVKGRFTISRDNSKNTLYLQMNSLRAEDTAVYYCAKSGGRYGYDIWGQGTMVTVSS
VL: EIVMTQSPATLSVSPGERATLSCRASQSVSSNLAWYQQKPGQAPRLLIYGASTRATGIPARFSGSGSGTEFTLTISSLQSEDFAVYYCQQFHNFPPTFGGGTKVEIK
notes: IgG
B3: BIIB-12-1299 (antibody, V domains shown)
VH: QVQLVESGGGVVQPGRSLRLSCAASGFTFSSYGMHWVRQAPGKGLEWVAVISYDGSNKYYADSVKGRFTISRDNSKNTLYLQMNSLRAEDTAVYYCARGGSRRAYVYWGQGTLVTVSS
VL: EIVMTQSPATLSVSPGERATLSCRASQSVSSNLAWYQQKPGQAPRLLIYGASTRATGIPARFSGSGSGTEFTLTISSLQSEDFAVYYCQQLNNFPITFGGGTKVEIK
notes: IgG
B4: BIIB-12-900 (antibody, V domains shown)
VH: QVQLVQSGAEVKKPGASVKVSCKASGYTFTSYYMHWVRQAPGQGLEWMGIINPGGGSTSYAQKFQGRVTMTRDTSTSTVYMELSSLRSEDTAVYYCARSGGMYDRELGMDVWGQGTTVTVSS
VL: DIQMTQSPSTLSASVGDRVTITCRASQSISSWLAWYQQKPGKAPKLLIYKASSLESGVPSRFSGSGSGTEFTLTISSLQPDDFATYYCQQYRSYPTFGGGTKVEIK
notes: IgG
B5: BIIB-12-901 (antibody, V domains shown)
VH: QVQLVQSGAEVKKPGASVKVSCKASGYTFTSYYMSWVRQAPGQGLEWMGIINPSGGSTSYAQKFQGRVTMTRDTSTSTVYMELSSLRSEDTAVYYCARSRPRRPSPYGMDVWGQGTTVTVSS
VL: EIVLTQSPATLSLSPGERATLSCRASQSVSSYLAWYQQKPGQAPRLLIYDASNRATGIPARFSGSGSGTDFTLTISSLEPEDFAVYYCQQSANFPFTFGGGTKVEIK
notes: IgG
B6: BIIB-12-902 (antibody, V domains shown)
VH: QVQLVQSGAEVKKPGASVKVSCKASGYTFTSYYMHWVRQAPGQGLEWMGIINPGGGSTSYAQKFQGRVTMTRDTSTSTVYMELSSLRSEDTAVYYCARGGPRRAYSWYFDYWGQGTLVTVSS
VL: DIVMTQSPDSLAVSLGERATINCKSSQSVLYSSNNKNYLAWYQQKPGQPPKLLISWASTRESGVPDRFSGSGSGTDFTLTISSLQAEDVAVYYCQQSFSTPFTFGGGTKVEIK
notes: IgG
B7: BIIB-12-893 (antibody, V domains shown)
VH: QVQLVQSGAEVKKPGASVKVSCKASGYTFTSYYMVWVRQAPGQGLEWMGIINPSGGSTSYAQKFQGRVTMTRDTSTSTVYMELSSLRSEDTAVYYCARDPGRRQYSFYGMDVWGQGTTVTVSS
VL: DIQLTQSPSSVSASVGDRVTITCRASQGISSWLAWYQQKPGKAPKLLIYAASSLQSGVPSRFSGSGSGTDFTLTISSLQPEDFATYYCQQAAAFPFTFGGGTKVEIK
notes: IgG
B8: BIIB-12-898 (antibody, V domains shown)
VH: QVQLVQSGAEVKKPGASVKVSCKASGYTFTSYYMHWVRQAPGQGLEWMGIINPSGGSTTYAQKFQGRVTMTRDTSTSTVYMELSSLRSEDTAVYYCARGDRMLRAFDPWGQGTLVTVSS
VL: DIQLTQSPSTLSASVGDRVTITCRASQAISSWLAWYQQKPGKAPKLLIYDASSLESGVPSRFSGSGSGTEFTLTISSLQPDDFATYYCQQVNRFPFTFGGGTKVEIK
notes: IgG
B9: BIIB-12-896 (antibody, V domains shown)
VH: QVQLVQSGAEVKKPGASVKVSCKASGYTFTSYYMHWVRQAPGQGLEWMGIINPSGGSTSYAQKFQGRVTMTRDTSTSTVYMELSSLRSEDTAVYYCARGLGQQRRGFDIWGQGTLVTVSS
VL: DIQMTQSPSSVSASVGDRVTITCRASQGISSWLAWYQQKPGKAPKLLIYAASSLQSGVPSRFSGSGSGTDFTLTISSLQPEDFATYYCQQANSFPFTFGGGTKVEIK
notes: IgG
B10: BIIB-12-1294 (antibody, V domains shown)
VH: QVQLVQSGAEVKKPGASVKVSCKASGYTFTSYYMHWVRQAPGQGLEWMGIINPSGGSTSYAQKFQGRVTMTRDTSTSTVYMELSSLRSEDTAVYYCARGTRSSRDMDVWGQGTTVTVSS
VL: DIQMTQSPSTLSASVGDRVTITCRASQSISSWLAWYQQKPGKAPKLLIYKASSLESGVPSRFSGSGSGTEFTLTISSLQPDDFATYYCQQVNTFPFTFGGGTKVEIK
notes: IgG
B11: BIIB-12-1290 (antibody, V domains shown)
VH: QVQLVQSGAEVKKPGASVKVSCKASGYTFTSYYMHWVRQAPGQGLEWMGIINPGGGSTSYAQKFQGRVTMTRDTSTSTVYMELSSLRSEDTAVYYCAREGGRYVRGMDVWGQGTTVTVSS
VL: DIQMTQSPSSVSASVGDRVTITCRASQGISSWLAWYQQKPGKAPKLLIYAASSLQSGVPSRFSGSGSGTDFTLTISSLQPEDFATYYCQQGFSFPFTFGGGTKVEIK
notes: IgG
B12: BIIB-12-1293 (antibody, V domains shown)
VH: QVQLVQSGAEVKKPGASVKVSCKASGYTFTSYYMHWVRQAPGQGLEWMGIINPSGGSTSYAQKFQGRVTMTRDTSTSTVYMELSSLRSEDTAVYYCARGSGGKHRGLDVWGQGTMVTVSS
VL: DIQMTQSPSSVSASVGDRVTITCRASQGISSWLAWYQQKPGKAPKLLIYAASSLQSGVPSRFSGSGSGTDFTLTISSLQPEDFATYYCQQANIFPFTFGGGTKVEIK
notes: IgG
B13: BIIB-12-899 (antibody, V domains shown)
VH: QVQLVQSGAEVKKPGASVKVSCKASGYTFTSYYMHWVRQAPGQGLEWMGIINPSGGSTSYAQKFQGRVTMTRDTSTSTVYMELSSLRSEDTAVYYCARGPRTSSPLYFDLWGRGTLVTVSS
VL: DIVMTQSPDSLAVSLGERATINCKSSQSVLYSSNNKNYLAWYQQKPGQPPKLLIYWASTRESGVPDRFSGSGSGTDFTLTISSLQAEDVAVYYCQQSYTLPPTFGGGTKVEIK
notes: IgG
B14: BIIB-12-897 (antibody, V domains shown)
VH: QLQLQESGPGLVKPSETLSLTCTVSGGSISSSSYYWGWIRQPPGKGLEWIGSIYYSGSTYYNPSLKSRVTISVDTSKNQFSLKLSSVTAADTAVYYCAREGRTYYGGWFDPWGQGTLVTVSS
VL: EIVLTQSPGTLSLSPGERATLSCRASQSVSSSYLAWYQQKPGQAPRLLIYGASSRATGIPDRFSGSGSGTDFTLTISRLEPEDFAVYYCQQDGNYPYTFGGGTKVEIK
notes: IgG
B15: BIIB-12-905 (antibody, V domains shown)
VH: QVQLVESGGGVVQPGRSLRLSCAASGFTFSSYGMHWVRQAPGKGLEWVAVISYDGSNKYYADSVKGRFTISRDNSKNTLYLQMNSLRAEDTAVYYCAKGGTYLDTWGQGTLVTVSS
VL: EIVLTQSPGTLSLSPGERATLSCRASQSVRSSYLAWYQQKPGQAPRLLIYGASSRATGIPDRFSGSGSGTDFTLTISRLEPEDFAVYYCQQYGRFPPTFGGGTKVEIK
notes: IgG
B16: BIIB-12-928 (antibody, V domains shown)
VH: QVQLVEFGVGVVQPGRSLRLSCAASGFTFSSYGMHWVRQAPGKGLEWVAVISYDGSNKYYADSVKGRFTISRDNSKNTLYLQMNSLRAEDTAVYYCAKGGTYLDTWGQGTLVTVSS
VL: EIVLTQSPGTLSLSPGERATLSCRASQSVRSSYLAWYQQKPGQAPRLLIYGASSRATGIPDRFSGSGSGTDFTLTISRLEPEDFAVYYCQQYVRFPLTFGGGTKVEIK
notes: IgG
B17: BIIB-12-907 (antibody, V domains shown)
VH: QVQLQESGPGLVKPSETLSLTCAVSGYSISSGYYWAWIRQPPGKGLEWIGSIYHSGSTYYNPSLKSRVTISVDTSKNQFSLKLSSVTAADTAVYYCARESGMSGAAYWGQGTLVTVSS
VL: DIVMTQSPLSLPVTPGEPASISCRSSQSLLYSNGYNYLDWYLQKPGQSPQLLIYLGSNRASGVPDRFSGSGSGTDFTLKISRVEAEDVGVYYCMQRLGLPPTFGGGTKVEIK
notes: IgG
B18: BIIB-12-906 (antibody, V domains shown)
VH: QVQLVESGGGVVQPGRSLRLSCAASGFTFSSYGMHWVRQAPGKGLEWVAVISYDGSNKYYADSVKGRFTISRDNSKNTLYLQMNSLRAEDTAVYYCAKSSRHFDYWGRGTLVTVSS
VL: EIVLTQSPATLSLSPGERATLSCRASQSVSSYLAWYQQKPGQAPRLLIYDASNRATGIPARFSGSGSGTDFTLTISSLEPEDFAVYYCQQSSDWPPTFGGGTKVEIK
notes: IgG
B19: BIIB-12-1311 (antibody, V domains shown)
VH: QVQLVESGGGVVQPGRSLRLSCAASGFTFSSYGMHWVRQAPGKGLEWVAVISYDGSNKYYADSVKGRFTISRDNSKNTLYLQMNSLRAEDTAVYYCAKGRHYWAVWGQGTLVTVSS
VL: EIVLTQSPATLSLSPGERATLSCRASQSVSSYLAWYQQKPGQAPRLLIYDASNRATGIPARFSGSGSGTDFTLTISSLEPEDFAVYYCQQASNLPPTFGGGTKVEIK
notes: IgG
B20: BIIB-12-891 (antibody, V domains shown)
VH: QVQLVQSGAEVKKPGASVKVSCKASGYTFTSYYIHWVRQAPGQGLEWMGIINPSGGSTSYAQKFQGRVTMTRDTSTSTVYMELSSLRSEDTAVYYCARASIYRGLGAFDIWGQGTMVTVSS
VL: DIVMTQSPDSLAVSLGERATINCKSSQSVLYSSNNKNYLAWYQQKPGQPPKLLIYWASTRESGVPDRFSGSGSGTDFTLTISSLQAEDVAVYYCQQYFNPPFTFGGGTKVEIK
notes: IgG
B21: BIIB-12-892 (antibody, V domains shown)
VH: QVQLVQSGAEVKKPGASVKVSCKASGYTFTSYYMHWVRQAPGQGLEWMGIINPSGGSTSYAQKFQGRVTMTRDTSTSTVYMELSSLRSEDTAVYYCARGLGRRTPTAFDIWGQGTMVTVSS
VL: EIVLTQSPATLSLSPGERATLSCRASQSVSSYLAWYQQKPGQAPRLLIYDASNRATGIPARFSGSGSGTDFTLTISSLEPEDFAVYYCQQRLNLPLTFGGGTKVEIK
notes: IgG
B22: BIIB-12-895 (antibody, V domains shown)
VH: QVQLVQSGAEVKKPGASVKVSCKASGYTFTSYYMHWVRQAPGQGLEWMGIINPSGGSTSYAQKFQGRVTMTRDTSTSTVYMELSSLRSEDTAVYYCARGGGYKSRGIDYWGQGTLVTVSS
VL: DIQMTQSPSSVSASVGDRVTITCRASQGISSWLAWYQQKPGKAPKLLIYAASSLQSGVPSRFSGSGSGTDFTLTISSLQPEDFATYYCQQASSFPFTFGGGTKVEI
notes: IgG
B23: BIIB-12-903 (antibody, V domains shown)
VH: QVQLVQSGAEVKKPGASVKVSCKASGYTFTSYYMHWVRQAPGQGLEWMGIINPSGGSTSYAQKFQGRVTMTRDTSTSTVYMELSSLRSEDTAVYYCARDLGYTAGAFGYWGQGTLVTVSS
VL: EIVLTQSPATLSLSPGERATLSCRASQSVSSYLAWYQQKPGQAPRLLIYDASNRATGIPARFSGSGSGTDFTLTISSLEPEDFAVYYCQQRANWPPTFGGGTKVEIK
notes: IgG

The target of the experiment is T1, non-activatable Factor X (FXn) (Homo sapiens (Human), UniProt P00742 41-488, single biotin on the C-terminal BioTag).
T1 construct: also called BIIB-FX-015
Description: BLI; class meaning: paragraph 285. For orientation: In BLI a coated tip is dipped into the sample, and binding shifts an interference pattern.
Consider B1, for which the binding result was “binds”.

As to B2, the binding result is listed as “binds”.

On to B3, for which the binding result is reported as “binds”.

For B4, the binding result is recorded as “binds”.

For B5, the binding result is listed as “binds”.

As for B6, the binding result is listed as “binds”.

With B7, the binding result is on record as “binds”.

Regarding B8, the binding result was “binds”.

Regarding B9, the binding result is on record as “binds”.

B10: the binding result is on record as “binds”.

Take B11: the binding result was “binds”.

Regarding B12, the binding result is recorded as “binds”.

As to B13, the binding result is on record as “binds”.

With B14, the binding result is “binds”.

For B15, the binding result is listed as “binds”.

With B16, the binding result is “binds”.

As to B17, the binding result is given as “binds”.

In the case of B18, the binding result is reported as “binds”.

As to B19, the binding result is “binds”.

Turning to B20, the binding result is listed as “binds”.

For B21, the binding result is listed as “binds”.

On to B22, for which the binding result is given as “binds”.

With B23, the binding result is listed as “binds”.
